In publication doi:10.1101/2022.06.07.494932:

How the values were obtained:
[1] = target: α-Synuclein A53T, unlabelled (human) (UniProt P37840); assay: ELISA
[2] = target: α-Synuclein WT, unlabelled (human) (UniProt P37840); assay: ELISA

Substance “α-Synuclein A53T, unlabelled (from UniProt P37840 1-140) (natural protein)” has an intracellular α-Syn oligomer concentration after 3 days [1] of 16.3 nM.

With “α-Synuclein WT, unlabelled (from UniProt P37840 1-140) (natural protein)” the intracellular α-Syn oligomer concentration after 1 day [2] was 12.3 nM and the intracellular α-Syn oligomer concentration after 3 days [2] was 13.1 nM.
